In article PMC12121391, “Crystal structure of ATP-dependent DNA ligase from Rhizobium phage vB_RleM_P10VF”:

Biological target: T1, P10VF-Lig (ATP-dependent DNA ligase) (Rhizobium phage vB_RleM_P10VF, UniProt A0A076YM08)
T1 sequence: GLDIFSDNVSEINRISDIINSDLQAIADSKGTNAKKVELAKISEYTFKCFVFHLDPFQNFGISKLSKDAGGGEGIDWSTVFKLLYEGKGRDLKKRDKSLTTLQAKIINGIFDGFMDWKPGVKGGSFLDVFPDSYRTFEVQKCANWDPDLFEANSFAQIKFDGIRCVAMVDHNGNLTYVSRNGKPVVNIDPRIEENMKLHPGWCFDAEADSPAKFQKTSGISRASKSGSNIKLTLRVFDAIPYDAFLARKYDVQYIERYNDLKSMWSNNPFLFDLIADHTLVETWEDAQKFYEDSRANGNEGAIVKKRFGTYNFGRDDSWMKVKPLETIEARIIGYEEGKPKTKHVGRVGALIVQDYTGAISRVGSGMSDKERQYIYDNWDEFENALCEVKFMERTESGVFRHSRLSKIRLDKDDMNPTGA
Assay: X-ray crystallography; AMP transferred to the DNA 5'-phosphate (step 2 intermediate); EDTA 5 mM; 2.2 Å; Crystallization: protein in 50 mM Tris pH 7.5, 200 mM NaCl, 1 mM beta-mercaptoethanol; 1.2 eq nicked duplex, 5 mM EDTA, 30 min on ice; 24% PEG 4000, 100 mM bis-Tris pH 5.5, 4 °C (278 K in Table 2)
Conditions: protein: recombinant, SeMet-substituted, 21 bp, blunt ends

B1: nicked DNA duplex (21 nt complement, 10 + 11 nt nicked strand) (dsDNA)
DNA 1: TTCCGACAGTGGGGTCGCAAT
DNA 2: ATTGCGACCC
DNA 3: CACTATCGGAA
modifications: 2'-O-methyl one nucleotide upstream of the 3' terminus at the nick (strand 2); 5'-phosphate at the nick (strand 3), adenylated (AMP) in the crystal
binding result: binds
